The supplement of paper PMC11908140

B1: library; numbered along this chain (parent)
chain: MRKPRAAVGSGHRKQAASQEGRQKHAKNNSQAKPSACDGLARQPEEVVLQASVSSYHLFRDVAEVTAFRGSLLSWYDQEKRDLPWRRRAEDEMDLDRRAYAVWVSEVMLQQTQVATVINYYTGWMQKWPTLQDLASASLEEVNQLWAGLGYYSRGRRLQEGARKVVEELGGHMPRTAETLQQLLPGVGRYTAGAIASIAFGQATGVVDGNVARVLCRVRAIGADPSSTLVSQQLWGLAQQLVDPARPGDFNQAAMELGATVCTPQRPLCSQCPVESLCRARQRVEQEQLLASGSLSGSPDVEECAPNTGQCHLCLPPSEPWDQTLGVVNFPRKASRKPPREESSATCVLEQPGALGAQILLVQRPNSGLLAGLWEFPSVTWEPSEQLQRKALLQELQRWAGPLPATHLRHLGEVVHTFSHIKLTYQVYGLALEGQTPVTTVPPGARWLTQEEFHTAAVSTAMKKVFRVYQGQQPGTCMGSKRSQVSSPCSRKKPRMGQQVLDNFFRSHISTDAHSLNSAAQ

Variants of: B1
Experiment: 8OG:A repair function score (normalized; synonymous = 0, nonsense = -1) (normalized log-likelihood score); higher = more repair activity (WT-like)
Conditions: with 8OG:A DNA repair reporter (GFP) in HEK-293 MUTYH KO cells
Procedure: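 Saturation mutagenesis (NNN codon scan) of the MUTYH cDNA (521-aa nuclear isoform NM_001048174.1 / NP_001041639), stably expressed under doxycycline induction in HEK-293 MUTYH knockout cells. Cells were co-transfected with an 8OG:A-bearing GFP repair reporter plus mCherry and sorted 72 h later into GFP+ and GFP− bins, three replicates per tile. The Rosace log2 enrichment (GFP+ vs GFP−) was converted per tile to a normalized function score with synonymous variants centered at 0 and nonsense variants (codons 1-471) at -1; low-abundance variants were removed.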

Row | Variant | 8OG:A repair function score
1 | MRKPRAAVGSGHRKQAASQEGRQKHAKNNSQAKPSACDGLARQPEEVVLQASVSSYHLFRDVAEVTAFRGSLLSWYDQEKRDLPWRRRAEDEMDLDRRAYAVWVSEVMLQQTQVATVGNYYTGWMQKWPTLQDLASASLEEVNQLWAGLGYYSRGRRLQEGARKVVEELGGHMPRTAETLQQLLPGVGRYTAGAIASIAFGQATGVVDGNVARVLCRVRAIGADPSSTLVSQQLWGLAQQLVDPARPGDFNQAAMELGATVCTPQRPLCSQCPVESLCRARQRVEQEQLLASGSLSGSPDVEECAPNTGQCHLCLPPSEPWDQTLGVVNFPRKASRKPPREESSATCVLEQPGALGAQILLVQRPNSGLLAGLWEFPSVTWEPSEQLQRKALLQELQRWAGPLPATHLRHLGEVVHTFSHIKLTYQVYGLALEGQTPVTTVPPGARWLTQEEFHTAAVSTAMKKVFRVYQGQQPGTCMGSKRSQVSSPCSRKKPRMGQQVLDNFFRSHISTDAHSLNSAAQ [I118G] | -0.107
2 | MRKPRAAVGSGHRKQAASQEGRQKHAKNNSQAKPSACDGLARQPEEVVLQASVSSYHLFRDVAEVTAFRGSLLSWYDQEKRDLPWRRRAEDEMDLDRRAYAVWVSEVMLQQTQVATVENYYTGWMQKWPTLQDLASASLEEVNQLWAGLGYYSRGRRLQEGARKVVEELGGHMPRTAETLQQLLPGVGRYTAGAIASIAFGQATGVVDGNVARVLCRVRAIGADPSSTLVSQQLWGLAQQLVDPARPGDFNQAAMELGATVCTPQRPLCSQCPVESLCRARQRVEQEQLLASGSLSGSPDVEECAPNTGQCHLCLPPSEPWDQTLGVVNFPRKASRKPPREESSATCVLEQPGALGAQILLVQRPNSGLLAGLWEFPSVTWEPSEQLQRKALLQELQRWAGPLPATHLRHLGEVVHTFSHIKLTYQVYGLALEGQTPVTTVPPGARWLTQEEFHTAAVSTAMKKVFRVYQGQQPGTCMGSKRSQVSSPCSRKKPRMGQQVLDNFFRSHISTDAHSLNSAAQ [I118E] | -0.0341
3 | MRKPRAAVGSGHRKQAASQEGRQKHAKNNSQAKPSACDGLARQPEEVVLQASVSSYHLFRDVAEVTAFRGSLLSWYDQEKRDLPWRRRAEDEMDLDRRAYAVWVSEVMLQQTQVATVANYYTGWMQKWPTLQDLASASLEEVNQLWAGLGYYSRGRRLQEGARKVVEELGGHMPRTAETLQQLLPGVGRYTAGAIASIAFGQATGVVDGNVARVLCRVRAIGADPSSTLVSQQLWGLAQQLVDPARPGDFNQAAMELGATVCTPQRPLCSQCPVESLCRARQRVEQEQLLASGSLSGSPDVEECAPNTGQCHLCLPPSEPWDQTLGVVNFPRKASRKPPREESSATCVLEQPGALGAQILLVQRPNSGLLAGLWEFPSVTWEPSEQLQRKALLQELQRWAGPLPATHLRHLGEVVHTFSHIKLTYQVYGLALEGQTPVTTVPPGARWLTQEEFHTAAVSTAMKKVFRVYQGQQPGTCMGSKRSQVSSPCSRKKPRMGQQVLDNFFRSHISTDAHSLNSAAQ [I118A] | -0.0372
4 | MRKPRAAVGSGHRKQAASQEGRQKHAKNNSQAKPSACDGLARQPEEVVLQASVSSYHLFRDVAEVTAFRGSLLSWYDQEKRDLPWRRRAEDEMDLDRRAYAVWVSEVMLQQTQVATVDNYYTGWMQKWPTLQDLASASLEEVNQLWAGLGYYSRGRRLQEGARKVVEELGGHMPRTAETLQQLLPGVGRYTAGAIASIAFGQATGVVDGNVARVLCRVRAIGADPSSTLVSQQLWGLAQQLVDPARPGDFNQAAMELGATVCTPQRPLCSQCPVESLCRARQRVEQEQLLASGSLSGSPDVEECAPNTGQCHLCLPPSEPWDQTLGVVNFPRKASRKPPREESSATCVLEQPGALGAQILLVQRPNSGLLAGLWEFPSVTWEPSEQLQRKALLQELQRWAGPLPATHLRHLGEVVHTFSHIKLTYQVYGLALEGQTPVTTVPPGARWLTQEEFHTAAVSTAMKKVFRVYQGQQPGTCMGSKRSQVSSPCSRKKPRMGQQVLDNFFRSHISTDAHSLNSAAQ [I118D] | -0.182
5 | MRKPRAAVGSGHRKQAASQEGRQKHAKNNSQAKPSACDGLARQPEEVVLQASVSSYHLFRDVAEVTAFRGSLLSWYDQEKRDLPWRRRAEDEMDLDRRAYAVWVSEVMLQQTQVATVFNYYTGWMQKWPTLQDLASASLEEVNQLWAGLGYYSRGRRLQEGARKVVEELGGHMPRTAETLQQLLPGVGRYTAGAIASIAFGQATGVVDGNVARVLCRVRAIGADPSSTLVSQQLWGLAQQLVDPARPGDFNQAAMELGATVCTPQRPLCSQCPVESLCRARQRVEQEQLLASGSLSGSPDVEECAPNTGQCHLCLPPSEPWDQTLGVVNFPRKASRKPPREESSATCVLEQPGALGAQILLVQRPNSGLLAGLWEFPSVTWEPSEQLQRKALLQELQRWAGPLPATHLRHLGEVVHTFSHIKLTYQVYGLALEGQTPVTTVPPGARWLTQEEFHTAAVSTAMKKVFRVYQGQQPGTCMGSKRSQVSSPCSRKKPRMGQQVLDNFFRSHISTDAHSLNSAAQ [I118F] | -0.3
6 | MRKPRAAVGSGHRKQAASQEGRQKHAKNNSQAKPSACDGLARQPEEVVLQASVSSYHLFRDVAEVTAFRGSLLSWYDQEKRDLPWRRRAEDEMDLDRRAYAVWVSEVMLQQTQVATVCNYYTGWMQKWPTLQDLASASLEEVNQLWAGLGYYSRGRRLQEGARKVVEELGGHMPRTAETLQQLLPGVGRYTAGAIASIAFGQATGVVDGNVARVLCRVRAIGADPSSTLVSQQLWGLAQQLVDPARPGDFNQAAMELGATVCTPQRPLCSQCPVESLCRARQRVEQEQLLASGSLSGSPDVEECAPNTGQCHLCLPPSEPWDQTLGVVNFPRKASRKPPREESSATCVLEQPGALGAQILLVQRPNSGLLAGLWEFPSVTWEPSEQLQRKALLQELQRWAGPLPATHLRHLGEVVHTFSHIKLTYQVYGLALEGQTPVTTVPPGARWLTQEEFHTAAVSTAMKKVFRVYQGQQPGTCMGSKRSQVSSPCSRKKPRMGQQVLDNFFRSHISTDAHSLNSAAQ [I118C] | 0.0146
7 | MRKPRAAVGSGHRKQAASQEGRQKHAKNNSQAKPSACDGLARQPEEVVLQASVSSYHLFRDVAEVTAFRGSLLSWYDQEKRDLPWRRRAEDEMDLDRRAYAVWVSEVMLQQTQVATQINYYTGWMQKWPTLQDLASASLEEVNQLWAGLGYYSRGRRLQEGARKVVEELGGHMPRTAETLQQLLPGVGRYTAGAIASIAFGQATGVVDGNVARVLCRVRAIGADPSSTLVSQQLWGLAQQLVDPARPGDFNQAAMELGATVCTPQRPLCSQCPVESLCRARQRVEQEQLLASGSLSGSPDVEECAPNTGQCHLCLPPSEPWDQTLGVVNFPRKASRKPPREESSATCVLEQPGALGAQILLVQRPNSGLLAGLWEFPSVTWEPSEQLQRKALLQELQRWAGPLPATHLRHLGEVVHTFSHIKLTYQVYGLALEGQTPVTTVPPGARWLTQEEFHTAAVSTAMKKVFRVYQGQQPGTCMGSKRSQVSSPCSRKKPRMGQQVLDNFFRSHISTDAHSLNSAAQ [V117Q] | -1.26
8 | MRKPRAAVGSGHRKQAASQEGRQKHAKNNSQAKPSACDGLARQPEEVVLQASVSSYHLFRDVAEVTAFRGSLLSWYDQEKRDLPWRRRAEDEMDLDRRAYAVWVSEVMLQQTQVATYINYYTGWMQKWPTLQDLASASLEEVNQLWAGLGYYSRGRRLQEGARKVVEELGGHMPRTAETLQQLLPGVGRYTAGAIASIAFGQATGVVDGNVARVLCRVRAIGADPSSTLVSQQLWGLAQQLVDPARPGDFNQAAMELGATVCTPQRPLCSQCPVESLCRARQRVEQEQLLASGSLSGSPDVEECAPNTGQCHLCLPPSEPWDQTLGVVNFPRKASRKPPREESSATCVLEQPGALGAQILLVQRPNSGLLAGLWEFPSVTWEPSEQLQRKALLQELQRWAGPLPATHLRHLGEVVHTFSHIKLTYQVYGLALEGQTPVTTVPPGARWLTQEEFHTAAVSTAMKKVFRVYQGQQPGTCMGSKRSQVSSPCSRKKPRMGQQVLDNFFRSHISTDAHSLNSAAQ [V117Y] | -1.28
9 | MRKPRAAVGSGHRKQAASQEGRQKHAKNNSQAKPSACDGLARQPEEVVLQASVSSYHLFRDVAEVTAFRGSLLSWYDQEKRDLPWRRRAEDEMDLDRRAYAVWVSEVMLQQTQVATWINYYTGWMQKWPTLQDLASASLEEVNQLWAGLGYYSRGRRLQEGARKVVEELGGHMPRTAETLQQLLPGVGRYTAGAIASIAFGQATGVVDGNVARVLCRVRAIGADPSSTLVSQQLWGLAQQLVDPARPGDFNQAAMELGATVCTPQRPLCSQCPVESLCRARQRVEQEQLLASGSLSGSPDVEECAPNTGQCHLCLPPSEPWDQTLGVVNFPRKASRKPPREESSATCVLEQPGALGAQILLVQRPNSGLLAGLWEFPSVTWEPSEQLQRKALLQELQRWAGPLPATHLRHLGEVVHTFSHIKLTYQVYGLALEGQTPVTTVPPGARWLTQEEFHTAAVSTAMKKVFRVYQGQQPGTCMGSKRSQVSSPCSRKKPRMGQQVLDNFFRSHISTDAHSLNSAAQ [V117W] | -0.737
10 | MRKPRAAVGSGHRKQAASQEGRQKHAKNNSQAKPSACDGLARQPEEVVLQASVSSYHLFRDVAEVTAFRGSLLSWYDQEKRDLPWRRRAEDEMDLDRRAYAVWVSEVMLQQTQVATRINYYTGWMQKWPTLQDLASASLEEVNQLWAGLGYYSRGRRLQEGARKVVEELGGHMPRTAETLQQLLPGVGRYTAGAIASIAFGQATGVVDGNVARVLCRVRAIGADPSSTLVSQQLWGLAQQLVDPARPGDFNQAAMELGATVCTPQRPLCSQCPVESLCRARQRVEQEQLLASGSLSGSPDVEECAPNTGQCHLCLPPSEPWDQTLGVVNFPRKASRKPPREESSATCVLEQPGALGAQILLVQRPNSGLLAGLWEFPSVTWEPSEQLQRKALLQELQRWAGPLPATHLRHLGEVVHTFSHIKLTYQVYGLALEGQTPVTTVPPGARWLTQEEFHTAAVSTAMKKVFRVYQGQQPGTCMGSKRSQVSSPCSRKKPRMGQQVLDNFFRSHISTDAHSLNSAAQ [V117R] | -1.16
11 | MRKPRAAVGSGHRKQAASQEGRQKHAKNNSQAKPSACDGLARQPEEVVLQASVSSYHLFRDVAEVTAFRGSLLSWYDQEKRDLPWRRRAEDEMDLDRRAYAVWVSEVMLQQTQVATSINYYTGWMQKWPTLQDLASASLEEVNQLWAGLGYYSRGRRLQEGARKVVEELGGHMPRTAETLQQLLPGVGRYTAGAIASIAFGQATGVVDGNVARVLCRVRAIGADPSSTLVSQQLWGLAQQLVDPARPGDFNQAAMELGATVCTPQRPLCSQCPVESLCRARQRVEQEQLLASGSLSGSPDVEECAPNTGQCHLCLPPSEPWDQTLGVVNFPRKASRKPPREESSATCVLEQPGALGAQILLVQRPNSGLLAGLWEFPSVTWEPSEQLQRKALLQELQRWAGPLPATHLRHLGEVVHTFSHIKLTYQVYGLALEGQTPVTTVPPGARWLTQEEFHTAAVSTAMKKVFRVYQGQQPGTCMGSKRSQVSSPCSRKKPRMGQQVLDNFFRSHISTDAHSLNSAAQ [V117S] | -0.427
12 | MRKPRAAVGSGHRKQAASQEGRQKHAKNNSQAKPSACDGLARQPEEVVLQASVSSYHLFRDVAEVTAFRGSLLSWYDQEKRDLPWRRRAEDEMDLDRRAYAVWVSEVMLQQTQVATTINYYTGWMQKWPTLQDLASASLEEVNQLWAGLGYYSRGRRLQEGARKVVEELGGHMPRTAETLQQLLPGVGRYTAGAIASIAFGQATGVVDGNVARVLCRVRAIGADPSSTLVSQQLWGLAQQLVDPARPGDFNQAAMELGATVCTPQRPLCSQCPVESLCRARQRVEQEQLLASGSLSGSPDVEECAPNTGQCHLCLPPSEPWDQTLGVVNFPRKASRKPPREESSATCVLEQPGALGAQILLVQRPNSGLLAGLWEFPSVTWEPSEQLQRKALLQELQRWAGPLPATHLRHLGEVVHTFSHIKLTYQVYGLALEGQTPVTTVPPGARWLTQEEFHTAAVSTAMKKVFRVYQGQQPGTCMGSKRSQVSSPCSRKKPRMGQQVLDNFFRSHISTDAHSLNSAAQ [V117T] | 0.0387
